# Laboratory results from paper PMC5814352 (Nature, 2018).
# B1: human DNMT3A (R836A) C-terminal domain (residues 628-912) (domain or fragment, UniProt Q9Y6K1-1 628-912, looked up)
# chain: AEKRKPIRVLSLFDGIATGLLVLKDLGIQVDRYIASEVCEDSITVGMVRHQGKIMYVGDVRSVTQKHIQEWGPFDLVIGGSPCNDLSIVNPARKGLYEGTGRLFFEFYRLLHDARPKEGDDRPFFWLFENVVAMGVSDKRDISRFLESNPVMIDAKEVSAAHRARYFWGNLPGMNRPLASTVNDKLELQECLEHGRIAKFSKVRTITTASNSIKQGKDQHFPVFMNEKEDILWCTEMERVFGFPVHYTDVSNMSRLARQRLLGRSWSVPVIRHLFAPLKEYFACV
# modifications: covalently bound to Zebularine of the 25-mer DNA
# Target: the molecule itself
# Assay: crystal structure
protein,measurement,value
B1,binding result,binds
